From the DeepSol protein solubility set

Test: soluble on expression in E. coli; label from the status in PepcDB or PDB records

Sequence	soluble on expression in E. coli
HGPEGTVEIETVKLARSVFSKLHEICCSWVKDFPLRRRPQLYYETSIHAIKNMRRKMEDKHVCIPDFNMLFNLEDQEEQAYFAVFDGHGGVDAAIYASIHLHVNLVRQEMFPHDPAEALCRAFRVTDERFVQKAARESLRCGTTGVVTFIRGNMLHVAWVGDSQVMLVRKGQAVELMKPHKPDREDEKQRIEALGGCVVWFGAWRVNGSLSVSRAIGDAEHKPYICGDADSASTVLDGTEDYLILACDGFYDTVNPDEAVKVVSDHLKENNGDSSMVAHKLVASARDAGSSDNITVIVVFLRDMNKVRASSPSPL	soluble
HGSSHHHHHHSSENLYFQGHMWNSRKVGVLGGGQLGRMLVESANRLNIQVNVLDADNSPAKQISAHDGHVTGSFKEREAVRQLAKTCDVVTAEIEHVDTYALEEVASEVKIEPSWQAIRTIQNKFNQKEHLRKYGIPMAEHRELVENTPAELAKVGEQLGYPLMLKSKTMAYDGRGNFRVNSQDDIPEALEALKDRPLYAEKWAYFKMELAVIVVKTKDEVLSYPTVETVQEDSICKLVYAPARNVSDAINQKAQELARKAVAAFDGKGVFGVEMFLLEDDSIMLCEIASRIHNSGHYTIEGCALSQFDAHLRAILDLPIPAQSLEIRQPSIMLNIIGGAAPDTHLQAAECALSIPNASIHLYSKGAAKPGRKMGHITVTAPTMHEAETHIQPLIDVVDRIRA	soluble
HGTSDATLLKGVGHLYGTALPVGGLGTRSVLTAHSGIQKSTFFDNLEKVKKGDAIYVRNIGETLKYQVRDIEIIRPAEIDRIQPIPDRDLITLVTCTPYGINTHRLLVTAERVPMEPGEADRAFAGDGIVWQWWMK	not soluble
HHMSAIKPDMKINLRMEGNVNGHHFVIDGDGTGKPFEGKQSMDLEVKEGGPLPFAFDILTTAFHYGNRVFAEYPDHIQDYFKQSFPKGYSWERSLTFEDGGICIARNDITMEGDTFYNKVRFHGVNFPANGPVMQKKTLKWEPSTEKMYVRDGVLTGDITMALLLEGNAHYRCDSRTTYKAKEKGVKLPGYHLVDHCIEILSHDKDYNKVKLYEHAVAHSGLPDNARR	soluble
HMAMASKEMFEDTVEERVINEEYKIWKKNTPFLYDLVMTHALQWPSLTVQWLPEVTKPEGKDYALHWLVLGTHTSDEQNHLVVARVHIPNDDAQFDASHCDSDKGEFGGFGSVTGKIECEIKINHEGEVNRARYMPQNPHIIATKTPSSDVLVFDYTKHPAKPDPSGECNPDLRLRGHQKEGYGLSWNSNLSGHLLSASDDHTVCLWDINAGPKEGKIVDAKAIFTGHSAVVEDVAWHLLHESLFGSVADDQKLMIWDTRSNTTSKPSHLVDAHTAEVNCLSFNPYSEFILATGSADKTVALWDLRNLKLKLHTFESHKDEIFQVHWSPHNETILASSGTDRRLNVWDLSKIGEEQSAEDAEDGPPELLFIHGGHTAKISDFSWNPNEPWVICSVSEDNIMQIWQMAENIYNDE	soluble
HMVHITLDPDTANPWLILSEDRRQVRLGDTQQSIPGNEERFDSYPMVLGAQHFHSGKHYWEVDVTGKEAWDLGVCRDSVRRKGHFLLSSKSGFWTIWLWNKQKYEAGTYPQTPLHLQVPPCQVGIFLDYEAGMVSFYNITDHGSLIYSFSECAFTGPLRPFFSPGFNDGGKNTAPLTLCPL	soluble
HQIGEDTYIVQGTMTLNDFNNYFDVELESDDVDTIAGYYLTGVGTIPTTEKLSYELVSQNKQFILTNDKVKNGRVTKVKVQITEVEIEEETE	not soluble
HSHDWLTYPAGIHAKTVTGKPLVVHVHATDFDRSRGNVNPQVFAIEKDGMNHADHIITVSNLTRRTVIEKYGQHPDKVTTVHNAVEPLPASILALPDKRGVKDKVITFLGRITMQKGPEYFVEAAAKVLERTSDVRFVMAGNGDMMDAMIRLAARHKIADRFHFTGFMKGEQVYEVFKASDVYVMPSVSEPFGISPLEAMQCGVPSIISKQSGCAEILDYAIKVDYWDIDAMADAMHALIAYPELHTFLRDEGLREVNNIKWETAGQKVRDIYNKVTGR	not soluble
HSIISETTNTNYRQEFVQLGTQMSGKLSFEEWKELYRRIVFWEIELEQADRQMGELLEMQKQEANRLFARFVTQNYREWIAKPDTRPTMSPDLFKQKVFPLLDNGEKVFFILIDNFRQDQWESVKSMLSEFYTFEEDMYLSILPTATQYARNAIFSGLMPLQIEKMFPDLWVDEESEEGKNLNEEPMIRTLIERYRKHYSFSYNKVYETKFGERLLGQIRSLSQNQLNVIVLNFVDMMSHARTDSKMIRELASNEAAYRSLTKSWFKHSTTYNLFRSIAEMGYKVVLTTDHGTIQVKNPVKVIGDRSTNTNLRYKIGKNLDYNPKEVFEIKDPASVGLPHNNLSDKFIFTKEDDFFAYPNNYNYYVQYYRNTFQHGGISLEEMLVPVITMQPK	soluble
HWVTPDGQPGPSGEGGFTAESGRYHLFVSLACPWAHRTLIFRHLKDLQAHIGITIVDPRMLEHGWAFSEISRDNPVQDIRYLHQLYTRAKPDYTGRVTVPVLWDKQRDTIVSNESADIIRMFNSAFDSLTGNDLDFYPEALRNEIGTINEVVYRDFNN	not soluble
IAAVGDGVCMLDRGFRIVYQNRAHERLLGEHGGERCSDAYGEDPDACRDCPMARAMDTGEVCTGSRRFISKGETRLLEITSSPVRNAAGEIVAGVEVVRDVT	not soluble
IALENTIEQRLAADVATLVSAARVEKGRLVMPEHLPVEEFNLPEAKVLGYIYDQNGDLLWRSTSAADESINYTPRYDGRGNEFHTTRDAKGEEFFVFDVEIDLLRGKQAAYSIVTMQSVSEFESLLKGFREQL	not soluble
IETNRRERRIKRNKYLLSLYNNTNIKTSNFIYPLFIHEEDVEKKHTQLEGIYTYNVDGIIKEIEECIKLNIHHFMFFPVIREENKTVYCEESYNENSYFCKTISRIKEKFSDDIIVYTDVALDPYNIYGHDGIYDDNKKEILNDITVHTLVKQSLCLAKSGADVVCPSDSMDKRIELIRKNLDFHNFRDILILSYTCKYSSSMYKPFRSILNSNILKNFVKNKQSYQHDFNSYMDLNNVDKHIIEGADIIMVKPSMFYLDIIHKIKNRIKDDVQIPIAVYNVSGEYMMIKNYVKYLNEDINYENEIITELFKSYLRAGANIIITYFAKQYGLYMKKLYDKNIIIDDNSNNNFNIELTL	soluble
IGDVNLTLRGNFTYSKSEILEYDEEYSNYPYKSQRGFRVDQTRGLIALGLFKDYDDIRNSPKQSWGDVMPGDIKYADVNGDGYVNDNDIVPIGATTRPNLVYGFGLSGQWKGIDINVLFQGSGKSTFCIDGPTVYPFENGDWGNILTDVVKSNRWILGENEDPNAKYPRLSYGGNSNNYRASTYWLRNGSYLRLKNLEIGYTIPKSLVNKMHLNNIRIYFMGTNLVTFSSFKLWDPELGSSNGQKYPLSKSYTLGLTINI	not soluble
IGQVNLSARGNFTFARNEIIEYDQVPQVYPWLEKRGTRLNSNKLYIAEGLYTYDDFIINGEGLNRTYELKPGVVSGLSSGVRPGDIKYKDLNGDGKIDSNDQKEDVGNPTVPEVVYGFGFNAEWKGFYAGIFFQGAGNTSTVLGTGADATFFPFQWGVEESAVRSVVADRWTEQNPSQNVMFPRMHSNNFQNNTVASTWWLRDASFLRLKNIELGYNFDKKLLKKLNIEALRFYVQGNNLCVWDHIKMWDPEQGNSNGGFPYPLNRTFTFGLDFTF	not soluble
IGQVNYNIGFNMADSRSFVDKYPNKSKSLSTYYKDQELGAIWGYVTHGIAKSQSEMDEWTKDNKPSWGSGWGEGDIMFEDLNGDKVINEGANTVDDPGDRKIIGNSTPRFRFGLDLGVEWKGIDFSMFWQGVAKRDLWLDGPMFWGISGGEWQSTGLKEHLDYYRPENTTSVFGPNTNAYFPKMYMSKDMNQKVQTRYLQNGAYARLKNIQLGYTFPTQIINKLHMQKLRVYVSAENVLTITSLPSGFDPETTYSNYSDGNSGKTYPLQTTISFGLNATF	not soluble
IGYWHYDADTDTATWSKGLFKILGLPPSNVALNYSSFLDLVHPNDKAGLKNVVEKALKEKEDYDYELRVRNGDNDYKWYRTIARANPHK	not soluble
IHTSPYSKDAPLVASLSVNQKITGRNSEKDVRHIEIDLGDSGLRYQPGDALGVWYQNDPALVKELVELLWLKGDEPVTVEGKTLPLNEALQWHFELTVNTANIVENYATLTRSETLLPLVGDKAKLQHYAATTPIVDMVRFSPAQLDAEALINLLRPLTPRLYSIASSQAEVENEVHVTVGVVRYDVEGRARAGGASSFLADRVEEEGEVRVFIEHNDNFRLPANPETPVIMIGPGTGIAPFRAFMQQRAADEAPGKNWLFFGNPHFTEDFLYQVEWQRYVKEGVLTRIDLAWSRDQKEKVYVQDKLREQGAELWRWINDGAHIYVCGDANRMAKDVEQALLEVIAEFGGMDTEAADEFLSELRVERRYQRDVY	soluble
IKEGQLAEKTIRANKNIENTYETEQRKKLAAEAVTPEYIYQEDTASVQHNRIDKLFKLIDSANEKVDKEYSNKQAKAKKEETIPAPTVEERVASLKSLFESLPQDEVTFYQSFPNVFYQTIFTLTSEQLDKVRSESLMLVDDAMQNHVRESDLDKIRQEANGKIQYLDITSTMQQVIRYIVNQGIVVNDIANEKRTEELRQKAMNAVQPAMIYQGEIIVREGTQIDAKAVEKLELLGMTSQNTS	not soluble
ILPQPDVRVNQVGYLPEGKKVATVVCNSTQPVKWQLKNAAGVVVLEGYTEPKGLDKDSQDYVHWLDFSDFATEGIGYYFELPTVNSPTNYSHPFDIRKDIYTQMKYDALAFFYHKRSGIPIEMPYAGGEQWTRPAGHIGIEPNKGDTNVPTWPQDDEYAGIPQKNYTKDVTGGWYDAGDHGKYVVNGGIAVWTLMNMYERAKIRGLDNWGPYRDGGMNIPEQNNGYPDILDEARWEIEFFKKMQVTEKEDPSIAGMVHHKIHDFRWTALGMLPHEDPQPRYLRPVSTAATLNFAATLAQSARLWKDYDPTFAADCLEKAEIAWQAALKHPDIYAEYTPGSGGPGGGPYNDDYVGDEFYWAACELYVTTGKDEYKNYLMNSPHYLEMPAKMGENGGANGEDNGLWGCFTWGTTQGLGTITLALVENGLPATDIQKARNNIAKAADRWLENIEEQGYRLPIKQAEDERGGYPWGSNSFILNQMIVMGYAYDFTGDSKYLDGMFDGISYLLGRNAMDQSYVTGYGERPLQNPHDRFWTPQTSKRFPAPPPGIISGGPNSRFEDPTINAAVKKDTPPQKCFIDHTDSWSTNEITVNWNAPFAWVTAYLDQYTD	soluble
INLSTLPEHLTYLVRSSRVLQELHESEAQNRALLNAIPDMMLHVCREGTILDFRAGNGCAYAAFGGNLRGRTIADLLPPGAAAQFMAQVGHALATGTMMVCEYELEGPGGLNTHEARIVANG	not soluble
INPAAHGAMDELLGELRLHTVCREARCPNITECFRERQATFLILGAECTRLCSFCNVTKGEPLPPDPDEPARVAQAVVRLSLAHVVITSPTRDDLPDGGAGHYVATVATIGRVAPATVVELLIPDFLGSRAALADVVAAAPRIIGHNVETVPRLYAIRAGADYGRSLAVLRTLRELAPGCATKSGLMLGLGETEEEVLAVMADLRRVDCTYLSLGQYLAPSRFHHPVREFVLPETFDRLKELAEKMGFRHVESGPY	not soluble
INYEKVGLKVGLEIHQQLNTKRKLFCHCPTILRDDEPDGEIVRVLRPSLSEMGEVDRAALIEARKGKKFIYQFYNDTTCLVELDEEPPHPPSEEALRIALEVALLMNMNVVDVAYTMRKIVIDGSNTSGFQRTIFLARDGYIETSEGKVGITSLCLEEDAARKIEDRGDAVVYNLDRLGIPLVEISTAPDIKTPKMAKEAARRIGEILRATGKVKRGLGTIRQDINISIKDGARIEVKGVQDLDLIEKVVENEVIRQLNLL	not soluble
IPVDLTWDLEAIFSTDEEWEKEFNEVKGLIPSLVQFKGKLSQSAEILYAALQQQDEITERLGRLYTYAHMRYDQDTTNSFYQGLNDRAQTLASQVGQAASFVVPELMSIEKEKIDTFLNEHEPLTLYRHMLDELNKQRPHVLSEAEESILAQASEVTSAPSNTFGMLNNADMTFPTIVNENGEEVEVTHGRYL	soluble
